In US20110097326A1 (IRM, published 2011):
Values joined by “and” are separate entries in the source; they are usually repeats but may differ in a detail not shown here. Identical values can stand only once.

How the values were obtained:
[1] = target: T1, recombinant Fc-TrkB antigen (human) (human, UniProt Q16620 32-430, limits assumed); assay: BLI (ForteBio Octet), biotinylated Fc-TrkB on streptavidin sensors, IgG at 1E-8 M
T1 construct: Biotinylated for the ForteBio assays; also called Fc-hTrkB; human Fc-TrkB; not shown: Fc part
Method: (§1) The binding kinetics of IgGs and Fab fragments were analyzed using a ForteBio Octet biosensor. Recombinant Fc-TrkB antigen was biotinylated using the EZ-link biotinylation kit (Pierce) according to the manufacturer's methods. The antigen was then coupled to streptavidin-coated sensors (ForteBio). Fab binding was monitored in real time using bio-layer interferometry analysis and software provided by the manufacturer. Affinities were calculated from the determined association and dissociation constants.
IgGs with human V-segments were also prepared from transient transfections of CHO cells. IgG preparations were purified and further characterized by kinetic comparison with the reference IgG A10F18.2. Binding kinetics for two of the IgGs with human V-segments were analyzed using a ForteBio Octet system for real-time label-free monitoring of protein-protein interactions.

[2] = target: T1, recombinant Fc-TrkB antigen (human); assay: SPR (Biacore S51), Fc-hTrkB amine-coupled to CM-5 chip, IgG in flow, global 1:1 Langmuir fit
Method: Binding studies on the improved antibodies were performed by immobilizing Fc-hTrkB onto a Series S CM-5 Biacore sensor chip (certified) (Biacore #BR-1005-30). Covalent binding of the Fc-fusion protein was done with the ‘Amine Coupling Kit’ (Biacore #BR-1000-50). The Fc-Fusion protein was attached to the EDC-activated dextran surface at 5 μg/ml in 10 mM sodium acetate, pH 4.5 (Biacore #BR-1003-50) at a flow rate of 10 μL/min
A range of concentrations of improved antibodies were flowed over the Fc-TrkB captured chip in PBS plus 100 mM NaCl, 0.005% P20 (Biacore #BR-1000-54). The resulting sensorgrams were analyzed using the Biacore S51 Evaluation Software. Data from all concentrations was fitted globally to a 1:1 Langmuir model.
Although this antibody is bivalent, the binding was treated as a 1:1 event.

[3] = target: T2, human TrkC-Fc fusion protein (human, UniProt Q16288 32-429, limits assumed); assay: ELISA on Trk-hFc fusion proteins, goat anti-human Fab-HRP detection [panel C]
T2 construct: not shown: Fc part
Method: (§2) FIG. 9A-D illustrate ELISA assays showing specific binding of NVP-LFD253, NVP-LFD254, NVP-LFC325 and NVP-LFC327 to human TrkB-Fc fusion protein but not to human […] or TrkC-Fc fusion proteins. Purified IgG at 2 μg/ml was evaluated for specificity by examining its interaction with three different Trk family members (TrkA, TrkB and TrkC). Secondary Ab are replicates that were blocked and treated with only the goat-anti-human Fab-HRP detection Ab.
(§3) IgG with human V-segments (e.g., NVP-LFD253, NVP-LFD254, NVP-LFC325, and NVP-LFC327) bind specifically to TrkB but not to TrkA or TrkC. Purified IgG antibodies at 2 μg/ml were evaluated for specificity by examining its interaction with three different Trk family members (TrkA, TrkB and TrkC). Secondary Ab are replicates that were blocked and treated with only the goat-anti-human Fab-HRP detection Ab. As shown in FIG. 9A-D, none of LFD253, LFD254, LFC325 or LFC327 bind to either of these related Trk family receptors.

[4] = target: T3, TrkA-Fc fusion protein (human, UniProt P04629-2 34-407, limits assumed); assay: as above
T3 construct: not shown: Fc part
Method: as §2, §3

[5] = target: TrkB on rat intestinal epithelial (RIE)-TrkB cells; assay: cell-based or functional assay
[6] = target: T2, human TrkC-Fc fusion protein; assay: ELISA on Trk-hFc fusion proteins, goat anti-human Fab-HRP detection [panel A]
Method: as §2, §3

[7] = target: T3, TrkA-Fc fusion protein; assay: as above
Method: as §2, §3

[8] = target: T2, human TrkC-Fc fusion protein; assay: ELISA on Trk-hFc fusion proteins, goat anti-human Fab-HRP detection [panel B]
Method: as §2, §3

[9] = target: T3, TrkA-Fc fusion protein; assay: as above
Method: as §2, §3

[10] = target: T1, recombinant Fc-TrkB antigen (human); assay: blocking ELISA on coated Fc-TrkB; blocked molecule: Fab TR151-1 at 50 nM, detected with anti-human kappa-HRP [upper panel]
[11] = target: T1, recombinant Fc-TrkB antigen (human); assay: blocking ELISA on coated Fc-TrkB; blocked molecule: Fab TR3-1 at 50 nM (two replicate series), detected with anti-human kappa-HRP [upper panel]
[12] = target: T1, recombinant Fc-TrkB antigen (human); assay: BLI (ForteBio Octet), biotinylated Fc-TrkB on streptavidin sensors, Fab at 1E-7 M
Method: as §1
(§4) Fabs with human V-segments were isolated from colony-lift binding assays and confirmed by antigen-binding ELISA. The Fab clones showing strong positive signals in antigen-binding ELISA were purified and further characterized by kinetic comparison with the reference Fab TR3-1. Binding kinetics were analyzed using a ForteBio Octet system for real-time label-free monitoring of protein-protein interactions.

[13] = target: T1, recombinant Fc-TrkB antigen (human); assay: as above; remark: listed apart in the source
Method: as §1, §4

B1: NVP-LFC325 (antibody, human IgG1, V domains shown)
VH: QVQLVQSGAEVKKPGASVKVSCKASGYTFTAYDMHWVRQAPGQGLEWMGWIDPNSGGTRYAQKFQGRVTMTRDTSISTAYMELSRLTSDDTAVYYCTGVTTWFAYWGQGTLVTVSS
VL: DIVMTQTPLSLPVTLGQPASISCRSSQSLLHSNGNTYLNWYQQTPGQPPRLLIYKISNRFSGVPDRFSGSGAGTDFTLKISRVEAEDVGVYYCMQGTHVPYTFGQGKLEIK
notes: IgG with human IgG1 constant region and human kappa constant region, from transiently transfected CHO cells; also called TR127 Vh & TR119 Vk
A Kd [1] of 0.0335 nM, a koff [1] of 1.52e-05 s⁻¹ and a kon [1] of 453000 M⁻¹ s⁻¹ were found for B1 in this work. The Kd [2] was 0.114 nM, the koff [2] was 4.85e-05 s⁻¹ and the kon [2] was roughly 425000 M⁻¹ s⁻¹. The binding result [3] was “no binding (tested: 2 ug/ml)”, the binding result [4] was “no binding (tested: 2 ug/ml)” and the “EC50, anoikis assay on RIE-TrkB cells” value [5] was 41.8 ng/ml and 280 pM.

B2: NVP-LFD253 (antibody, human IgG1, V domains shown)
VH: QVQLVQSGAEVKKPGASVKVSCKASGYTFTAYDMHWVRQAPGQGLEWMGWIDPNSGGTRYAQKFQGRVTMTRDTSISTAYMELSRLTSDDTAVYYCTGVTTWFAYWGQGTLVTVSS
VL: DIVMTQTPLSLPVTLGQPASISCRSSQSLVHSNGNTYLSWLQQRPGQPPRLLIYKISNRFSGVPDRFSGSGAGTDFTLKISRVEAEDVGVYYCMQGTHEPYTFGQGKLEIK
notes: IgG with human IgG1 constant region and human kappa constant region, from transiently transfected CHO cells; also called TR127 Vh & TR137 Vk
A Kd [2] of 0.165 nM, a koff [2] of 3.25e-05 s⁻¹ and a kon [2] of 197000 M⁻¹ s⁻¹ were found for B2 in this work. For the same binder, the “EC50, anoikis assay on RIE-TrkB cells” value [5] was 4.1 ng/ml and 28 pM, the binding result [6] was “no binding (tested: 2 ug/ml)” and the binding result [7] was “no binding (tested: 2 ug/ml)”.

B3: NVP-LFD254 (antibody, human IgG1, V domains shown)
VH: QVQLVQSGAEVKKPGASVKVSCKASGYTFTAYDMHWVRQAPGQGLEWMGWIDPRSGDTSYKQKFQGRVTMTRDTSISTAYMELHRLRSDDTAVYYCTGVTTWFAYWGQGTLVTVSS
VL: DIVMTQTPLSLPVTLGQPASISCRSSQSLLHSNGNTYLNWYQQTPGQPPRLLIYKISNRFSGVPDRFSGSGAGTDFTLKISRVEAEDVGVYYCMQGTHVPYTFGQGKLEIK
notes: IgG with human IgG1 constant region and human kappa constant region, from transiently transfected CHO cells; also called TR143 Vh & TR119 Vk
A Kd [2] of 0.117 nM, a koff [2] of 1.94e-05 s⁻¹ and a kon [2] of 166000 M⁻¹ s⁻¹ were found for B3 in this work. For the same binder, the “EC50, anoikis assay on RIE-TrkB cells” value [5] was 24 ng/ml and 160 pM, the binding result [8] was “no binding (tested: 2 ug/ml)” and the binding result [9] was “no binding (tested: 2 ug/ml)”.

B4: A10F18.2 IgG (antibody, V domains shown)
VH: QVQLQQSGAELVRPGASVTLSCKASGYTFTDYEMHWVKQTPVHGLEWIGTIDPETAGTAYNQKFKGKAILTAGKSSSTAYMELRSLTSEDSAVYYCTGVTTWFAYWGQGTLVTVSA
VL: DVVMTQTPLSLPVSLGDQASISCRSSQSLVHSNGNTYLHWYLQKPGQSPNLLIYKVSNRFSGVPDRFSGSGSGTDFTLKISRVEAEDLGVYFCSQGTHVPYTFGGGTKLEIKR
In the case of B4, the Kd [1] is reported as 0.0379 nM and 0.0477 nM, the koff [1] is reported as 1.44e-05 s⁻¹ and 1.89e-05 s⁻¹ and the kon [1] is reported as 379000 M⁻¹ s⁻¹ and 396000 M⁻¹ s⁻¹. For the same binder, the “IC50 (read off the curve)” value [10] was roughly 5 nM and the “IC50 (read off the curve)” value [11] was roughly 6 nM.

B5: Fab TR135-8 (Fab, V domains shown)
VH: QVQLVQSGAEVKKPGASVKVSCKASGYTFTAYDMHWVRQAPGQGLEWMGWIDPNSGGTRYAQKFQGRVTMTRDTSISTAYMELSRLTSDDTAVYYCTGVTTWFAYWGQGTLVTVSS
VL: MDVVMTQSPLSLPVTLGQPASISCRSSQSLVHSNGNTYLNWYQQKPGQPPRLLIYKISNRFSGVPDRFSGSGAGTDFTLKISRVEAEDVGVYYCMQGTHEPYTFGQGKLEIK
notes: Fab with human V-segments, expressed in E. coli; detected with anti-human kappa
A Kd [12] of 32.3 nM, a koff [12] of 0.00439 s⁻¹ and a kon [12] of 136000 M⁻¹ s⁻¹ were found for B5 in this work. The Kd [13] was 31.9 nM, the koff [13] was 0.00458 s⁻¹ and the kon [13] was 144000 M⁻¹ s⁻¹.

B6: Fab TR134-4 (Fab, V domains shown)
VH: QVQLVQSGAEVKKPGASVKVSCKASGYTFTAYDMHWVRQAPGQGLEWMGWIDPNSGGTRYAQKFQGRVTMTRDTSISTAYMELSRLTSDDTAVYYCTGVTTWFAYWGQGTLVTVSS
VL: MDVVMTQSPLSLPVTLGQPASISCRSSQSLLHSNGNTYLNWYQQTPGQPPRLLIYKISNRFSGVPDRFSGSGAGTDFTLKISRVEAEDVGVYYCMQGTHEPYTFGQGKLEIK
notes: Fab with human V-segments, expressed in E. coli
A Kd [13] of 35.6 nM, a koff [13] of 0.00422 s⁻¹ and a kon [13] of 118000 M⁻¹ s⁻¹ were found for B6 in this work.

B7: Fab TR139-2 (Fab, V domains shown)
VH: QVQLVQSGAEVKKPGASVKVSCKASGYTFTAYDMHWVRQAPGQGLEWMGWIDPNSGGTRYAQKFQGRVTMTRDTSISTAYMELSRLTSDDTAVYYCTGVTTWFAYWGQGTLVTVSS
VL: MDVVMTQSPLSLPVTLGQPASISCRSSQSLVHSNGNTYLSWLQQRPGQPPRLLIYKISNRFSGVPDRFSGSGAGTDFTLKISRVEAEDVGVYYCMQGTHEPYTFGQGKLEIK
notes: as for B6
A Kd [12] of 15.1 nM, a koff [12] of 0.00317 s⁻¹ and a kon [12] of 211000 M⁻¹ s⁻¹ were found for B7 in this work. It also gave a Kd [13] of 14.2 nM, a koff [13] of 0.00334 s⁻¹ and a kon [13] of 235000 M⁻¹ s⁻¹.

B8: Fab TR144-1 (Fab, V domains shown)
VH: QVQLVQSGAEVKKPGASVKVSCKASGYTFTAYDMHWVRQAPGQGLEWMGWIDPRSGDTSYKQKFQGRVTMTRDTSISTAYMELHRLRSDDTAVYYCTGVTTWFAYWGQGTLVTVSS
VL: MDVVMTQSPLSLPVTLGQPASISCRSSQSLVHSNGNTYLNWYQQKPGQPPRLLIYKISNRFSGVPDRFSGSGAGTDFTLKISRVEAEDVGVYYCMQGTHEPYTFGQGKLEIK
notes: as for B6
A Kd [12] of 31.1 nM, a koff [12] of 0.00392 s⁻¹ and a kon [12] of 126000 M⁻¹ s⁻¹ were found for B8 in this work. It also gave a Kd [13] of 29.7 nM, a koff [13] of 0.00366 s⁻¹ and a kon [13] of 123000 M⁻¹ s⁻¹.

B9: Fab TR151-1 (Fab, V domains shown)
VH: QVQLVQSGAEVKKPGASVKVSCKASGYTFTAYDMHWVRQAPGQGLEWMGWIDPNSGGTRYAQKFQGRVTMTRDTSISTAYMELSRLTSDDTAVYYCAGVTSWFAYWGQGTLVTVSS
VL: MDVVMTQSPLSLPVTLGQPASISCRSSQSLVHSNGNTYLSWLQQRPGQPPRLLIYKISNRFSGVPDRFSGSGAGTDFTLKISRVEAEDVGVYYCMQGTHEPYTFGQGKLEIK
notes: as for B6
A Kd [12] of 18.6 nM, a koff [12] of 0.00395 s⁻¹ and a kon [12] of 213000 M⁻¹ s⁻¹ were found for B9 in this work.
